{"source": "paper PMC5074588", "about": "“TCS1, a Microtubule-Binding Protein, Interacts with KCBP/ZWICHEL to Regulate Trichome Cell Shape in Arabidopsis thaliana” (PLoS Genetics, 2016)", "binders": {"B1": {"name": "MBP-TCS1 (TRICHOME CELL SHAPE 1 fused to maltose binding protein) (natural protein, Arabidopsis thaliana, UniProt Q0WSY2 1-982, looked up)", "chain": "MDRKSWPWKKKSSEKTATVTEVVDQENGKKPSYIQISFDQYTNLNGLKDEVKSYEEKVTKLEDQIKDLDLKLSTANADIVAKEVLVKQHSKVAEEAVTGWEKAEAEASALKTHLETITLAKLTVEDRAAHLDGALKECMRQIRSLKEENEQKLHDVIATKTNQMDNLRAEFESRIGEYEEELLRCGAENDALSRSLQERSNMLMRISEEKSQAESEIEHLKNNIESCEREINTLKYETHVITKELEIRNEEKNMSMRSAEAANKQHLEGVKKIAKLEAECQRLRTLVRKKLPGPAALAQMKMEVESLGFGDHRQDHRQRRSPVRPSSPLMSPMSHMSQVSEFSLDNMQKFHKENDLLTERLLAMEEETKMLKEALAKRNSELQVSRNLCAKTANRLQTLEAQMMSKSPTKRGFEMPAEIFSRQNASNPPSMASMSEDGNEDARSVAGSLMSELSQSNKDKANAKIKKTESANQLELMDDFLEMEKLACLPNGSNANGSTDHSSADSDAEIPPATQLKKRISNVLQSLPKDAAFEKILAEIQCAVKDAGVKLPSKSHGANLNGLTEEKVIAMSNETTEEKVTIVEVITQELSDALSQIYQFVTYLSKEATACSENRTFSQKVQEFSTTFEGVLGKEKTLVDFLFDLSRVLVEASELKIDVLGFHTSTVEIHSPDCIDKVALPENKALQKDSSGEHYQNGCSQSSDSEIPDDCNGTSGYEPKLATCKFTTEEFEGLKLEKEKAESNLASCEADLEATKTKLQETEKLLAEVKSDLESAQKSNGMGETQLKCMVESYRSLETRSSELEIELTSLKGKIENLEDELHDEKENHREALAKCQELEEQLQRNNQNCPNCSVIEDDPKSKQDNELAAAAEKLAECQETILLLGKQLKSMCPQTEQVASSPSQEQQALNPEEEEYATSTNPQDSKLSSPSDKDTPSMNTMKSPVASKHRHTKSNSSSSSSGLTPEKHSRGFSRFFSTKAK", "notes": "TCS1, Arabidopsis thaliana, At1g19835, a 982-amino-acid coiled-coil protein; also called MBP-TCS1 fusion protein; source: E. coli Rosetta (DE3); bacterial lysate in the pull-downs"}}, "target": "tubulins (tubulin dimers; paclitaxel-stabilized microtubules)", "sequence (chain, as listed by the source, chain 1 of 2)": "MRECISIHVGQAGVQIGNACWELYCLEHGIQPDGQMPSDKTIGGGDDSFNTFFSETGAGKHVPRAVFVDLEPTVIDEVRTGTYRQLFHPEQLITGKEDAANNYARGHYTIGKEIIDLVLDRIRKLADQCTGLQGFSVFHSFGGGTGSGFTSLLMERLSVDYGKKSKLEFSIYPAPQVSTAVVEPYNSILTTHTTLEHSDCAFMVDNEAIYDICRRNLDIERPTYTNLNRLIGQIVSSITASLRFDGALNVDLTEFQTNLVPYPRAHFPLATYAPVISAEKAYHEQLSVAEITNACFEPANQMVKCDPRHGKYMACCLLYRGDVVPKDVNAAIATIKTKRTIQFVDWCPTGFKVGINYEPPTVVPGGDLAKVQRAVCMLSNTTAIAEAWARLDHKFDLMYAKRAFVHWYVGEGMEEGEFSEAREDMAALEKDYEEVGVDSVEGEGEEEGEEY", "sequence (chain, as listed by the source, chain 2 of 2)": "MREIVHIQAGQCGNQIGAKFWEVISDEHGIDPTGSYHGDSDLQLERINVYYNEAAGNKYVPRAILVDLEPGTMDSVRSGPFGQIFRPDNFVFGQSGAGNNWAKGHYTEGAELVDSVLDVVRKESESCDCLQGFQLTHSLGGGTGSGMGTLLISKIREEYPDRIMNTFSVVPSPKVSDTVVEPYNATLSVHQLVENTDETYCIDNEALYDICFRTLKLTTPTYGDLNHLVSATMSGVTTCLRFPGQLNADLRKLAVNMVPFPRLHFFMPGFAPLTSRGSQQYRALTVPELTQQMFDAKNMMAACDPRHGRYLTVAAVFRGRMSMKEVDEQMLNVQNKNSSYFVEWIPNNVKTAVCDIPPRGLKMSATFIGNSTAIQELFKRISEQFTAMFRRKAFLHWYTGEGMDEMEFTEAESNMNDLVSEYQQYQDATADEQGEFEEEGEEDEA", "assay": "co-sedimentation; different concentrations of the protein added to paclitaxel-stabilized microtubules (prepolymerized from 8 uM tubulins in Fig 5A, 5 uM in S7 Fig) in PEMT buffer (1 mM MgCl2, 1 mM EGTA, 100 mM PIPES, 20 uM taxol, pH 6.9); 25 C 30 min; 100,000g 30 min; SDS-PAGE, Coomassie", "details": "both partners purified"}
{"binder": "B1", "values": [{"measurement": "stoichiometry N", "value": "~0.38 M MBP-TCS1 per mole of tubulin dimers"}]}
